From patent CN113480644A (UNIV NANKAI, dated 2021)
Numbering of substitutions follows the chain as printed. Where two headings read alike, the source gives them in different places.

B1: PR301445 (antibody, V domains shown)
VH: QVQLVQSGAEVKKPGASVKISCKTSGYTFTEYTMYWVRQAPGQRLEWMGGINPNNGDTSYNQKFKGRATLTVDKSATTAYMELSSLRSEDTAVYYCARDGYPYYFAMDYWGQGTTVTVSS
VL: DIQMTQSPSSLSASVGDRVTITCKASQNVDTNVAWYQQKPGKAPKGLIYSASHRYSGVPSRFSGSGSGTDFTLTISSVQPEDLATYFCQQYNTYPWTFGQGTKVEIK
B2: PR301568 (antibody, V domains shown)
VH: B1 VH with N55Q, D99E
VL: B1 VL
B3: PR301561 (antibody, V domains shown)
VH: B1 VH with I20V, A68V, L70I
VL: B1 VL
B4: PR301563 (antibody, V domains shown)
VH: B1 VH
VL: B1 VL with V78L
B5: PR301566 (antibody, V domains shown)
VH: B1 VH with N55Q
VL: B1 VL
B6: PR301567 (antibody, V domains shown)
VH: B1 VH with N55Q, D99E
VL: B1 VL with V78L
B7: PR301564 (antibody, V domains shown)
VH: B1 VH
VL: B1 VL with H53S
B8: PR301446 (antibody, V domains shown)
VH: B1 VH with N55Q
VL: B1 VL with H53S
B9: PR301444 (antibody, V domains shown)
VH: B1 VH with I20V, A68V, L70I
VL: B1 VL with V78L
B10: PR301562 (antibody, V domains shown)
VH: B1 VH with I20V, A68V, L70I
VL: B1 VL with H53S
B11: PR301565 (antibody, V domains shown)
VH: B1 VH with N55Q
VL: B1 VL with V78L
B12: PR301447 (antibody, V domains shown)
VH: B1 VH with N55Q, D99E
VL: B1 VL with H53S
B13: PR301558 (antibody, V domains shown)
VH: QVQLVQSGAEVKKPGASVKLSCKASGYSFTSYWVNWVRQAPGQGLEWIGMIHPSDSETRLNQKFKDRVTITVDKSTSTAYMELSSLRSEDTAVYYCARADGYEWYFDVWGRGTLVTVSS
VL: DIVLTQSPASLAVSPGQRATITCRASESVDSYGNSFMHWYQQKPGQPPKLLIYRASNLESGIPARFSGSGSRTDFTLTINPVEANDVANYYCQQSNEDPWTFGQGTKVEIK
B14: PR301556 (antibody, V domains shown)
VH: B13 VH with L20V, I48M, I70M
VL: B13 VL
B15: PR301557 (antibody, V domains shown)
VH: B13 VH
VL: B13 VL with I62V
B16: PR301442 (antibody, V domains shown)
VH: B13 VH
VL: B13 VL with R72G
B17: PR301441 (antibody, V domains shown)
VH: B13 VH with L20V, I48M, I70M
VL: B13 VL with I62V

Assays:
[1] = molecular target: T1, SARS-CoV-2(2019-nCoV)Spike Protein(S1 Subunit,His Tag) (SARS-CoV-2 (2019-nCoV), UniProt P0DTC2 16-685)
[2] = molecular target: T1, SARS-CoV-2(2019-nCoV)Spike Protein(S1 …); assay: ELISA, S1-His coated, antibody titrated

Binder	EC50 [1]	EC50 [2]
B1	0.0147 nM	–
B2	9.41 nM	–
B3	0.022 nM	–
B4	0.0217 nM	–
B5	0.0149 nM	–
B6	7.54 nM	–
B7	0.0154 nM	–
B8	–	0.00943 nM
B9	0.0204 nM	–
B10	0.015 nM	–
B11	0.0143 nM	–
B12	2.22 nM	–
B13	0.0405 nM	–
B14	0.0272 nM	–
B15	0.0438 nM	–
B16	0.0294 nM	–
B17	0.0154 nM	–
